According to the supplement of paper PMC10567573:

B1: KIAA1161 (parent)
chain: FMPAMQFSIPPWRYDAEVVAIAQK

Variants of: B1
Experiment: protein stability index of a GFP-peptide fusion (GPS, HEK-293T) (PSI 1-6); higher = more stable
Conditions: c terminus: a fixed tail appended
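Note: lentivirally expressed fusions sorted by FACS into six bins by GFP to DsRed ratio, PSI derived from sequencing read proportions per bin multiplied by bin number.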

Variant	protein stability index
FMPLMQFSIPPWRYDAEVVAIAQK	2.09
FMPNMQFSIPPWRYDAEVVAIAQK	1.56
FMPMMQFSIPPWRYDAEVVAIAQK	1.86
FMPEMQFSIPPWRYDAEVVAIAQK	2.34
FMPKMQFSIPPWRYDAEVVAIAQK	1.87
FMPCMQFSIPPWRYDAEVVAIAQK	1.47
FMPPMQFSIPPWRYDAEVVAIAQK	2.29
FMPAMQFSIPPWRYDPEVVAIAQK	2.08
FMPAMQFSIPPWRYDMEVVAIAQK	1.53
FMPAMQFSIPPWRYDKEVVAIAQK	1.59
FMPAMQFSIPPWRYDVEVVAIAQK	2.52
FMPAMQFSIPPWRYDREVVAIAQK	2.65
FMPAMQFSIPPWRYDAEVVAYAQK	1.64
FMPAMQFSIPPWRYDAEVVANAQK	2.11
FMPAMQFSIPPWRYDAEVVADAQK	2.59
FMPAMQFSIPPWRYDAEVVALAQK	1.93
FMPAMQFSIPPWRYDAEVVAQAQK	2.81
FMPAMQFSIPPWRYDAEVVAVAQK	1.68
FMPAMQFSIPPWRYDAEVVAHAQK	2.32
FMPAMQFSSPPWRYDAEVVAIAQK	2.08
FMPAMQFSNPPWRYDAEVVAIAQK	2.28
FMPAMQFSYPPWRYDAEVVAIAQK	2.83
FMPAMQFSQPPWRYDAEVVAIAQK	1.67
FMPAMQFSTPPWRYDAEVVAIAQK	1.8

Variant	protein stability index
MMPAMQFSIPPWRYDAEVVAIAQK	2.83
PMPAMQFSIPPWRYDAEVVAIAQK	2.33
GMPAMQFSIPPWRYDAEVVAIAQK	2.04
VMPAMQFSIPPWRYDAEVVAIAQK	2.7
SMPAMQFSIPPWRYDAEVVAIAQK	1.84
DMPAMQFSIPPWRYDAEVVAIAQK	3.37
LMPAMQFSIPPWRYDAEVVAIAQK	2.37
CMPAMQFSIPPWRYDAEVVAIAQK	1.97
IMPAMQFSIPPWRYDAEVVAIAQK	2.52
YMPAMQFSIPPWRYDAEVVAIAQK	1.82
FMPAMQFSIPPWRADAEVVAIAQK	2.2
FMPAMQFSIPPWRQDAEVVAIAQK	2.57
FMPAMQFSIPPWRHDAEVVAIAQK	2.52
FMPAMQFSIMPWRYDAEVVAIAQK	1
FMPAMQFSIAPWRYDAEVVAIAQK	1.33
FMPAMQFSIQPWRYDAEVVAIAQK	1.64
FMPAMQFSIYPWRYDAEVVAIAQK	2.34
FMPAMQFSILPWRYDAEVVAIAQK	2.99
FMPAMQFSIDPWRYDAEVVAIAQK	1.27
FMPAMQFSITPWRYDAEVVAIAQK	2
FMPAMQFSIKPWRYDAEVVAIAQK	2.57
FMPAMQFSISPWRYDAEVVAIAQK	2.42
FMPAMQFSIWPWRYDAEVVAIAQK	3.74
FMPAMQFSIPPWRYDAEVAAIAQK	2.18

Variant	protein stability index
FMPAMQFSIPPWRYDAEVMAIAQK	1.81
FMPAMQFSIPPWRYDAEVCAIAQK	2.39
FMPAMQFSIPPWRYDAEVDAIAQK	2.82
FMPAMQFSIPPWRYDAEVYAIAQK	3.33
FMPAMQFSIPPWRYDAECVAIAQK	1.86
FMPAMQFSIPPWRYDAEDVAIAQK	2.36
FMPAMQFSIPPWRYDAEMVAIAQK	1.88
FMPAMQFSIPPWRYDAEKVAIAQK	2.33
FMPAMQFSIPPWRYDAEHVAIAQK	2.93
FMPAMQFSIPPWRYDAEIVAIAQK	2.06
FMPAMQFSIPPWRYDAERVAIAQK	3.34
FMPAMQFSIPPWRYDAEEVAIAQK	2.63
FMPAMQFSIPPWRYDAEVVAIAQR	1.67
FMPAMQFSIPPWRYDAEVVAIAQF	2
FMPAMQFSIPPWRYDAEVVAIAQS	1.68
FMPAMQFSIPPWRYDAEVVAIAQD	1.82
FMPAMQFSIPPWRYDAEVVAIAQV	2.36
FMPAMQFSIPPWRYDAEVVAIAQA	2.31
FMPAMQFSIPPWRYDAEVVAIAQN	2.58
FMPAMQFSIPPWRYDAEVVAIAQL	2.62
FMPAMQFSIPPWRYDAEVVAIAQG	1.33
FMPAMQFSIPPWRYDAEVVAIAQC	1.61
FMPAMQFSIPIWRYDAEVVAIAQK	1.59
FMPAMQFSIPQWRYDAEVVAIAQK	1.78

Variant	protein stability index
FMPAMQFSIPVWRYDAEVVAIAQK	1.01
FMPAMQFSIPRWRYDAEVVAIAQK	1.48
FMPAMQFSIPGWRYDAEVVAIAQK	1.48
FMPAMQFSIPHWRYDAEVVAIAQK	3.1
FMPAMQFSIPDWRYDAEVVAIAQK	2.37
FMPAKQFSIPPWRYDAEVVAIAQK	1.95
FMPAGQFSIPPWRYDAEVVAIAQK	3.64
FMPAAQFSIPPWRYDAEVVAIAQK	2.15
FMPAQQFSIPPWRYDAEVVAIAQK	2.24
FMPAFQFSIPPWRYDAEVVAIAQK	2.25
FMPADQFSIPPWRYDAEVVAIAQK	1.48
FMPAEQFSIPPWRYDAEVVAIAQK	2.81
FMPACQFSIPPWRYDAEVVAIAQK	2.11
FMPASQFSIPPWRYDAEVVAIAQK	2.24
FMPATQFSIPPWRYDAEVVAIAQK	1.68
FMPANQFSIPPWRYDAEVVAIAQK	1.9
FMPAHQFSIPPWRYDAEVVAIAQK	2.71
FMPAPQFSIPPWRYDAEVVAIAQK	2.6
FMPAVQFSIPPWRYDAEVVAIAQK	2.23
FMPAMQFMIPPWRYDAEVVAIAQK	1.71
FMPAMQFIIPPWRYDAEVVAIAQK	2.81
FMPAMQFRIPPWRYDAEVVAIAQK	1.99
